Target: the molecule itself
Test: SEC-MALS; Superose 6 increase 10/300 GL, room temperature, running buffer 50 mM Tris-HCl (pH 7.5), 250 mM NaCl, flow rate 0.4 mL/minute; MiniDAWN Treos

B1: TetR-family regulator Sco4385 (His-tagged) (natural protein, Streptomyces coelicolor M512, UniProt Q9K3V9 1-202, looked up)
chain: MNAADRTERVPKQDRSRATRQRLLEAAVACLAERGWAGSTVSVVAEHAGVSRGAAQHHFPTREDLFTAAVEYVAEERSIALRALFPEGAAADDRRAVVAALVDLYTGPLFRAALHLWVAASNEEQLRGRVTELEARVGRESHRIAVELLGADETRPGARETVQGLLDMARGLGLANLLTDDGARRERVVEQWARLLDAALAQ
notes: TetR-family regulator Sco4385 of Streptomyces coelicolor M512; Expressed from the vector pHis8 (plasmid pSW21); No tag cleavage is described; also called TFR Sco4385; TetR-type regulator Sco4385; source: E. coli BL21 DE3, purified (Ni-NTA chromatography, size exclusion chromatography)
stoichiometry N: 2

Reference: PMC12093943, “The TetR-like regulator Sco4385 and Crp-like regulator Sco3571 modulate heterologous production of antibiotics in Streptomyces coelicolor M512” (Applied and Environmental Microbiology, 2025)
